{
  "source": "patent US20220409550A1",
  "about": "(KOREA INSTITUTE OF SCIENCE AND TECHNOLOGY, published 2022)",
  "target": "murine PD-L1 on CHO-K1 cells (murine, UniProt Q9EP73 19-290)",
  "sequence (Q9EP73 19-290)": "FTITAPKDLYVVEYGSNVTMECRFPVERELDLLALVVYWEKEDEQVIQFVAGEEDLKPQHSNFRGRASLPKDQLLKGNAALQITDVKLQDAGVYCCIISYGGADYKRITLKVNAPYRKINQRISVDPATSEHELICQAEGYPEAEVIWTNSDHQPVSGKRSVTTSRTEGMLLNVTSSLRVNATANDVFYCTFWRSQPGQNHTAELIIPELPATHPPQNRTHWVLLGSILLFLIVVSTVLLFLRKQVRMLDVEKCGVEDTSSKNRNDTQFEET",
  "assay": "cell-based or functional assay",
  "data": [
    {"binder": "monomeric form of soluble PD-1 (sPD-1) of the ecto-domain of murine PD-1 (receptor) MHHHHHHLEVPNGPWRSLTFYPAWLTVSEGANATFTCSLSNWSEDLMLNWNRLSPSNQTEKQAAFCNGLSQPVQDARFQIIQLPNRHDFHMNILDTRRNDSGIYLCGAISLHPKAKIEESPGAELVVT", "values": [
      {"measurement": "half maximal effective concentration (EC50), NFAT-mediated luciferase expression, bioluminescent PD-1/PD-L1 blockade bioassay", "result": 457, "unit": "nM"}
    ]}
  ]
}
